Experimental data: patent US20220202704A1, “PHARMACEUTICAL PARENTERAL COMPOSITION OF DUAL GLP1/2 AGONIST” (Zealand Pharma A/S, priority 2019, published 2022)
*1 amine or outer side, *2 acyl side, *3 side chain or, on linkers, in order; H or OH if unused. Where no end group is shown, it is not given here. Side-chain parts run from the residue outwards. [ ]: non-standard residue; d: D form. The star is where a group is joined. C18 diacid = O=C(O)CCCCCCCCCCCCCCCCC(=O)*; γGlu = O=C(O)[C@H](CCC(=O)[*:2])N[*:1]; Aib = CC(C)(N)C(=O)O

Test: Physical stability via ThT, fibril formation (ASSAY IVc)
Assay type: physicochemical
Set-up: key to Aggregation (fibrillation, ThT): FD = Fibrillation Detected; FND = Fibrillation Not Detected
Conditions: for Aggregation (fibrillation, ThT): 40° C. 4 days
Method: Samples were prepared in a total volume of 0.5 mL API (herein e.g. CPD1) stock solutions were prepared by dissolving API in demineralised water at ambient temperature (typically 25° C.) to achieve 5 and 25 mg/mL API, respectively. 8 working solutions were prepared: 1) 40 mM phosphate pH 6 and 80 μM ThT; 2) 40 mM phosphate pH 6.5 and 80 μM ThT; 3) 40 mM phosphate pH 7 and 80 μM ThT; 4) 40 mM phosphate pH 8 and 80 μM ThT; 5) 40 mM phosphate pH 6, 540 mM mannitol and 80 μM ThT; 6) 40 mM phosphate pH 6.5, 540 mM mannitol and 80 μM ThT; 7) 40 mM phosphate pH 7, 540 mM mannitol and 80 μM ThT; and 8) 40 mM phosphate pH 8, 540 mM mannitol and 80 μM ThT.
200 μL of API stock was mixed with 250 μL working solution, pH was measured and adjusted to target, followed by adding demineralised water to a final volume of 500 μL. Samples were loaded in a 96-well black fluorescence plate (clear bottom) in triplicate 3×150 μL. Data were collected at fixed intervals of 10 min, each preceded by 300 s of automixing (agitation), over a period of 96 hours at 40° C. Physical stability, expressed as lag-time of fibril formation (in hours), was defined as the intersection between two linear regressions representing the initial stable phase and the growth phase.

CPD1: any form of the compound comprising SEQ ID NO: 1 (CPD1OH or CPD1NH2 and any pharmaceutically acceptable salt thereof) (H-H[Aib]EGSFTSELATILDK([γGlu-C18 diacid])QAARDFIAWLIQHKITD; also: C-terminal acid or amide, both forms, salts)
Aggregation (fibrillation, ThT) (2 mg/mL CPD1, 20 mM phosphate pH 6, 270 mM mannitol): FD | Aggregation (fibrillation, ThT) (2 mg/mL CPD1, 20 mM phosphate pH 6, no added tonicity agent): FD | Aggregation (fibrillation, ThT) (2 mg/mL CPD1, 20 mM phosphate pH 6.5, 270 mM mannitol): FND | Aggregation (fibrillation, ThT) (2 mg/mL CPD1, 20 mM phosphate pH 6.5, no added tonicity agent): FND | Aggregation (fibrillation, ThT) (2 mg/mL CPD1, 20 mM phosphate pH 7, 270 mM mannitol): FND | Aggregation (fibrillation, ThT) (2 mg/mL CPD1, 20 mM phosphate pH 7, no added tonicity agent): FND | Aggregation (fibrillation, ThT) (2 mg/mL CPD1, 20 mM phosphate pH 8, 270 mM mannitol): FND | Aggregation (fibrillation, ThT) (2 mg/mL CPD1, 20 mM phosphate pH 8, no added tonicity agent): FND | Aggregation (fibrillation, ThT) (10 mg/mL CPD1, 20 mM phosphate pH 6, 270 mM mannitol): FD | Aggregation (fibrillation, ThT) (10 mg/mL CPD1, 20 mM phosphate pH 6, no added tonicity agent): FD | Aggregation (fibrillation, ThT) (10 mg/mL CPD1, 20 mM phosphate pH 6.5, 270 mM mannitol): FND | Aggregation (fibrillation, ThT) (10 mg/mL CPD1, 20 mM phosphate pH 6.5, no added tonicity agent): FND | Aggregation (fibrillation, ThT) (10 mg/mL CPD1, 20 mM phosphate pH 7, 270 mM mannitol): FND | Aggregation (fibrillation, ThT) (10 mg/mL CPD1, 20 mM phosphate pH 7, no added tonicity agent): FND | Aggregation (fibrillation, ThT) (10 mg/mL CPD1, 20 mM phosphate pH 8, 270 mM mannitol): FND | Aggregation (fibrillation, ThT) (10 mg/mL CPD1, 20 mM phosphate pH 8, no added tonicity agent): FND | Amyloid formation / fibrillation (2 and 10 mg/mL CPD1, pH 6): amyloid formation was observed | Amyloid formation / fibrillation (2 and 10 mg/mL CPD1, pH 7 or 8): no fibrillation was observed | Aggregation propensity, mannitol as tonicity agent compared to control (no tonicity agent) (pH range 6-8, 40° C. 4 days): No difference
